Measured values: article PMC7195466, “A common allosteric mechanism regulates homeostatic inactivation of auxin and gibberellin” (Nature Communications, 2020)
Each block holds one binder with its values, some of them ahead of it.

Tests used:
GC-SIM-MS of GA34 [1] = substrate: C=C1C[C@]23C[C@H]1CC[C@H]2[C@@]12CC[C@H](O)[C@@](C)(C(=O)O1)[C@H]2[C@@H]3C(=O)O; assay: GC-SIM-MS of GA34; assay type: biochemical, Oryza sativa; conditions: multimer forms measured separately (monomer, dimer, tetramer); same
Source text: GC-SIM-MS of GA34 on OsGA2ox3 (GA 2-oxidase 3) | The […]/[…]-tetramer affected both the Km and the Vmax values

GC-SIM-MS of GA34 [2] = substrate: C=C1C[C@]23C[C@H]1CC[C@H]2[C@@]12CC[C@H](O)[C@@](C)(C(=O)O1)[C@H]2[C@@H]3C(=O)O; assay: GC-SIM-MS of GA34; assay type: biochemical, Oryza sativa; conditions: multimer forms measured separately; Methods print Cys187 instead of C186; same
Source text: GC-SIM-MS of GA34 on OsGA2ox3 (GA 2-oxidase 3) | whereas the […]/[…] monomer affected only the Km

[3] = biological target: Oryza sativa dioxygenase for auxin oxidation (OsDAO) (rice (Oryza sativa)) (UniProt Q7XKU5)

B1: OsGA2ox3 (GA 2-oxidase 3) (Oryza sativa Japonica Group; F100A/R97A) (protein)
chain: MVVLAGPPAVDHIPLLRSPDPGDVFSGVPVVDLGSPGAARAVVDACERYGFFKVVNHGVATDTMDKAESEAVRFFSQTQPDKDRSGPAYPFGYGSKAIGANGDMGWLEYLLLALDDASLADACTVPSCAVFRAALNEYISGVRKVAVRVMEAMSEGLGIAQADALSALVTAEGSDQVFRVNHYPPCRALQGLGCSVTGFGEHTDPQLVSVLRSNGTSGLQIALRDGQWVSVPSDRDSFFVNVGDSLQVLTNGRFKSVKHRVVANSLKSRVSFIYFGGPPLAQRIAPLPQLLGEGEQSLYKEFTWDEYKKAAYKSRLGDNRLAQFEKK
notes: full-length coding region in pGEX6P1, GST tag cut off with PreScission protease, E. coli Rosetta (DE3) pLysS; monomer, homotetramer with GA4
Km (GC-SIM-MS of GA34 [1]): 0.52 ± 0.10 (tetramer) μM

B2: OsGA2ox3 (GA 2-oxidase 3) (Oryza sativa Japonica Group; C186A/W106A) (protein)
chain: MVVLAGPPAVDHIPLLRSPDPGDVFSGVPVVDLGSPGAARAVVDACERYGFFKVVNHGVATDTMDKAESEAVRFFSQTQPDKDRSGPAYPFGYGSKRIGFNGDMGALEYLLLALDDASLADACTVPSCAVFRAALNEYISGVRKVAVRVMEAMSEGLGIAQADALSALVTAEGSDQVFRVNHYPPARALQGLGCSVTGFGEHTDPQLVSVLRSNGTSGLQIALRDGQWVSVPSDRDSFFVNVGDSLQVLTNGRFKSVKHRVVANSLKSRVSFIYFGGPPLAQRIAPLPQLLGEGEQSLYKEFTWDEYKKAAYKSRLGDNRLAQFEKK
notes: as for B1
Km (GC-SIM-MS of GA34 [2]): 5.41 ± 0.96 (monomer) μM

Vmax of the dimer against the monomer (forms separated by gel filtration) [3]: 22 fold
B3: Oryza sativa dioxygenase for auxin oxidation (OsDAO) (enzyme)
chain: MVEIPAIDLRLAGGGGGAEETARLRDACARLGCFRVSGHGVPPGLQAEMKAAVRALFDLPDDAKRRNADIIPGSGYVPPGTANPLYEAFGLCDAAAPADVDAFCARLDAPPHVRETVKAYAERMHSLIVDVAGKVAASLGLHGASFQDWPCQFRMNRYNYTQDSVGSPGVQVHTDSGFLTVLQEDECVGGLEVLDPAAGEFVPVDPLPGSFVVNVGDVGQAWSNGRLHNVKHRVQCVAAVPRVSIAMFLLAPKDDTVSAPGELVDGEHPRRYREFKYDDYRRLRLSTGERAGEALARLAA
